Experimental data taken from CN108299557A (HANGZHOU HANSI BIOMEDICAL CO LTD, dated 2018).

Key:
PD-1-hIgGFc抗原 [1] = molecular target: T1, PD-1-hIgGFc抗原 (UniProt Q15116 25-167, limits assumed); assay: competition ELISA, PD-1-hIgGFc coated, competitor PDL1-mIgG2aFc 0.6 ug/ml, HRP anti-mouse IgG
T1 construct: not shown: human IgG Fc

PD-1-hIgGFc抗原 [2] = molecular target: T1, PD-1-hIgGFc抗原; assay: competition ELISA, PD-1-hIgGFc coated, competitor PDL2-his tag 1.0 ug/ml, HRP anti-his tag
PD-1-his抗原 = molecular target: T2, PD-1-his抗原 (UniProt Q15116 25-167, limits assumed); assay: binding ELISA, PD-1-his coated, HRP anti-human IgG
T2 construct: not shown: his tag
T2 sequence (Q15116 25-167 limits assumed): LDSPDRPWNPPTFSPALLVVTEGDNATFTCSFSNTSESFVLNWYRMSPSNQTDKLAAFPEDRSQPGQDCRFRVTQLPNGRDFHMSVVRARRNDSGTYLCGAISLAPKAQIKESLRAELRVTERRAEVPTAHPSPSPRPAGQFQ

T1 sequence (Q15116 25-167 limits assumed): as above

B1: 人源化抗体H8L2 (抗PD-1的IgG类抗体变体) (antibody)
heavy: EVQLVQSGGGLVQPGGSLKLSCAASGFTFSSYGMSWVRQAPGKGLDWVATISGGGRDTYYPDSVKGRFTISRDNSKNNLYLQMNSLRAEDTALYYCARQKGEAWFAYWGQGTLVTVSSASTKGPSVFPLAPCSRSTSESTAALGCLVKDYFPEPVTVSWNSGALTSGVHTFPAVLQSSGLYSLSSVVTVPSSSLGTKTYTCNVDHKPSNTKVDKRVESKYGPPCPPCPAPEFLGGPSVFLFPPKPKDTLMITRTPEVTCVVVDVSQEDPEVQFNWYVDGVEVHNAKTKPREEQFNSTYRVVSVLTPLHQDWLNGKEYKCKVSNKGLPSSIEKTISKAKGQPREPQVYTLPPSQEEMTKNQVSLTCLVKGFYPSDIAVEWESNGQPENNYKTTPPVLDSDGSFFLYSRLTVDKSRWQEGNVFSCSVMHEALHAHYTQKSLSLSLGK
light: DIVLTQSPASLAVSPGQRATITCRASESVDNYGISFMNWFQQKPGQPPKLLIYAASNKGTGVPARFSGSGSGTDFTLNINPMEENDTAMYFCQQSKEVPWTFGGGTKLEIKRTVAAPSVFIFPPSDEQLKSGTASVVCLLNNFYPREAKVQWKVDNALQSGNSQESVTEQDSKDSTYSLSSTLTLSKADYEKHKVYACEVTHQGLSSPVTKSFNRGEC
notes: ACC CCC CTG; CAC GCC CAC) confirms; The constant region looks like IgG4; also called 18A10 H8L2; H8L2突变体
An EC50 (PD-1-hIgGFc抗原 [1]) of 0.474 nM, an EC50 (PD-1-hIgGFc抗原 [2]) of 1.83 nM and an EC50 (PD-1-his抗原) of 0.04 nM were found for B1 in this work.
